Positions of bridges follow the written chain, without caps; N, C: chain ends. Non-standard residues stand in square brackets, D forms with d. Oic = O=C(O)[C@@H]1C[C@@H]2CCCC[C@@H]2N1; Hyp = O=C(O)[C@@H]1C[C@@H](O)CN1; 4Pal = N[C@@H](Cc1ccncc1)C(=O)O; NMeNle = CCCC[C@H](NC)C(=O)O; Pro(4-NH2) = 4-aminoproline; Pro(4-Ph) = 4-phenylproline; Pip = O=C(O)[C@@H]1CCCCN1; NMeA = CN[C@@H](C)C(=O)O; dNMeA = CN[C@H](C)C(=O)O; Sar = CNCC(=O)O
Target: T1, hPDL1(19-239)-TVMV-His (human, UniProt Q9NZQ7 19-239)
T1 construct: The text says amino acids 18-239, the construct name says 19-239; Expressed in HEK293T cells; Used at 10 nM final in the HTRF assay; also called PD-L1-His; PD-L1-TVMV-His
T1 sequence (Q9NZQ7 other isoform, or with tags, fused parts or gaps limits assumed): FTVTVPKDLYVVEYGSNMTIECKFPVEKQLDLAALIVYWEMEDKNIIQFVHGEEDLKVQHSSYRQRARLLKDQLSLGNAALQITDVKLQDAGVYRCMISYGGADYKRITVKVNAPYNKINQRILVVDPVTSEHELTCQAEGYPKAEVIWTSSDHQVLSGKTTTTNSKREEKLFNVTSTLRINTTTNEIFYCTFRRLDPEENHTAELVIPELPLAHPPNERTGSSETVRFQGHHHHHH
Test: HTRF competition, PD-1-Ig binding to PD-L1-His
Protocol: All binding studies were performed in an HTRF assay buffer consisting of dPBS supplemented with 0.1% (w/v) bovine serum albumin and 0.05% (v/v) Tween-20. […] PD-L1 fusion proteins from either human, cynomologous macaques, or mouse were used. HTRF detection was achieved using europium crypate-labeled anti-Ig monoclonal antibody (1 nM final) and allophycocyanin (APC) labeled anti-His monoclonal antibody (20 nM final). Antibodies were diluted in HTRF detection buffer and 5 μl was dispensed on top of binding reaction. The reaction was allowed to equilibrate for 30 minutes and signal (665 nm/620 nm ratio) was obtained using an EnVision fluorometer. […]
HTRF Experiments were performed essentially as outlined supra. Variant macrocyclic peptides were created as outlined herein.

IC50 | Binder
33 nM | {CH2CO}-[4Pal][NMeA]NPHL[Sar]WSW[NMeNle][NMeNle]RCG-NH2 (thioether N-14; SMILES CCCC[C@H]1C(=O)N(C)[C@@H](CCCC)C(=O)N[C@@H](CCCNC(=N)N)C(=O)N[C@H](C(=O)NCC(N)=O)CSCC(=O)N[C@@H](Cc2ccncc2)C(=O)N(C)[C@@H](C)C(=O)N[C@@H](CC(N)=O)C(=O)N2CCC[C@H]2C(=O)N[C@@H](Cc2c[nH]cn2)C(=O)N[C@@H](CC(C)C)C(=O)N(C)CC(=O)N[C@@H](Cc2c[nH]c3ccccc23)C(=O)N[C@@H](CO)C(=O)N[C@@H](Cc2c[nH]c3ccccc23)C(=O)N1C) [Compound No. 39]
34 nM | {CH2CO}-F[NMeA]N[Pip]HL[Sar]WSW[NMeNle][NMeNle]RCG-NH2 (thioether N-14; SMILES CCCC[C@H]1C(=O)N(C)[C@@H](CCCC)C(=O)N[C@@H](CCCNC(=N)N)C(=O)N[C@H](C(=O)NCC(N)=O)CSCC(=O)N[C@@H](Cc2ccccc2)C(=O)N(C)[C@@H](C)C(=O)N[C@@H](CC(N)=O)C(=O)N2CCCC[C@H]2C(=O)N[C@@H](Cc2c[nH]cn2)C(=O)N[C@@H](CC(C)C)C(=O)N(C)CC(=O)N[C@@H](Cc2c[nH]c3ccccc23)C(=O)N[C@@H](CO)C(=O)N[C@@H](Cc2c[nH]c3ccccc23)C(=O)N1C) [Compound No. 44]
105 nM | {CH2CO}-F[NMeA]N[Oic]HL[Sar]WSW[NMeNle][NMeNle]RCG-NH2 (thioether N-14; SMILES CCCC[C@H]1C(=O)N(C)[C@@H](CCCC)C(=O)N[C@@H](CCCNC(=N)N)C(=O)N[C@H](C(=O)NCC(N)=O)CSCC(=O)N[C@@H](Cc2ccccc2)C(=O)N(C)[C@@H](C)C(=O)N[C@@H](CC(N)=O)C(=O)N2[C@@H](C[C@@H]3CCCC[C@@H]32)C(=O)N[C@@H](Cc2c[nH]cn2)C(=O)N[C@@H](CC(C)C)C(=O)N(C)CC(=O)N[C@@H](Cc2c[nH]c3ccccc23)C(=O)N[C@@H](CO)C(=O)N[C@@H](Cc2c[nH]c3ccccc23)C(=O)N1C) [Compound No. 45]
40 nM | {CH2CO}-F[NMeA]N[Pro(4-NH2)]HL[Sar]WSW[NMeNle][NMeNle]RCG-NH2 (thioether N-14) [Compound No. 48]
27 nM | {CH2CO}-F[NMeA]N[Hyp]HL[Sar]WSW[NMeNle][NMeNle]RCG-NH2 (thioether N-14; SMILES CCCC[C@H]1C(=O)N(C)[C@@H](CCCC)C(=O)N[C@@H](CCCNC(=N)N)C(=O)N[C@H](C(=O)NCC(N)=O)CSCC(=O)N[C@@H](Cc2ccccc2)C(=O)N(C)[C@@H](C)C(=O)N[C@@H](CC(N)=O)C(=O)N2C[C@H](O)C[C@H]2C(=O)N[C@@H](Cc2c[nH]cn2)C(=O)N[C@@H](CC(C)C)C(=O)N(C)CC(=O)N[C@@H](Cc2c[nH]c3ccccc23)C(=O)N[C@@H](CO)C(=O)N[C@@H](Cc2c[nH]c3ccccc23)C(=O)N1C) [Compound No. 47]
873 nM | {CH2CO}-F[NMeA]N[Pro(4-Ph)]HL[Sar]WSW[NMeNle][NMeNle]RCG-NH2 (thioether N-14) [Compound No. 46]

Target: T2, human PD-L1 (human, UniProt Q9NZQ7 19-239, limits assumed)
T2 construct: also called Hu PD-L1; hPD-L1
T2 sequence (Q9NZQ7 19-239 limits assumed): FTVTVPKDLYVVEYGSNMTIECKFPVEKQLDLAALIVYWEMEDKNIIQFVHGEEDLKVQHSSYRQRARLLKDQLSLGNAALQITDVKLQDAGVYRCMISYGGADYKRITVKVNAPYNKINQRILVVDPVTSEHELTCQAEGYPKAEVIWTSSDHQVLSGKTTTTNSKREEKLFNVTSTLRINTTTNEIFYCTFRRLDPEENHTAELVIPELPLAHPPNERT
Test: cell binding assay, inhibition of Hu PD-L1/PD-1 binding

IC50 | Binder
3 nM | {CH2CO}-Y[NMeA]NPHL[Sar]WSW[NMeNle][NMeNle]RCG-NH2 (thioether N-14; SMILES CCCC[C@H]1C(=O)N(C)[C@@H](CCCC)C(=O)N[C@@H](CCCNC(=N)N)C(=O)N[C@H](C(=O)NCC(N)=O)CSCC(=O)N[C@@H](Cc2ccc(O)cc2)C(=O)N(C)[C@@H](C)C(=O)N[C@@H](CC(N)=O)C(=O)N2CCC[C@H]2C(=O)N[C@@H](Cc2c[nH]cn2)C(=O)N[C@@H](CC(C)C)C(=O)N(C)CC(=O)N[C@@H](Cc2c[nH]c3ccccc23)C(=O)N[C@@H](CO)C(=O)N[C@@H](Cc2c[nH]c3ccccc23)C(=O)N1C, macrocyclic peptide, Formula I series; also called Compound 30) [Compound No. 30]
19 nM | {CH2CO}-W[NMeA]NPHL[Sar]WSW[NMeNle][NMeNle]RCG-NH2 (thioether N-14; SMILES CCCC[C@H]1C(=O)N(C)[C@@H](CCCC)C(=O)N[C@@H](CCCNC(=N)N)C(=O)N[C@H](C(=O)NCC(N)=O)CSCC(=O)N[C@@H](Cc2c[nH]c3ccccc23)C(=O)N(C)[C@@H](C)C(=O)N[C@@H](CC(N)=O)C(=O)N2CCC[C@H]2C(=O)N[C@@H](Cc2c[nH]cn2)C(=O)N[C@@H](CC(C)C)C(=O)N(C)CC(=O)N[C@@H](Cc2c[nH]c3ccccc23)C(=O)N[C@@H](CO)C(=O)N[C@@H](Cc2c[nH]c3ccccc23)C(=O)N1C, macrocyclic peptide, Formula I series; also called Compound 25) [Compound No. 25]

Further lines, the binder ahead of its results:

Binder | IC50
{CH2CO}-F[NMeA]APHL[Sar]WSW[NMeNle][NMeNle]RCG-NH2 (thioether N-14; SMILES CCCC[C@H]1C(=O)N(C)[C@@H](CCCC)C(=O)N[C@@H](CCCNC(=N)N)C(=O)N[C@H](C(=O)NCC(N)=O)CSCC(=O)N[C@@H](Cc2ccccc2)C(=O)N(C)[C@@H](C)C(=O)N[C@@H](C)C(=O)N2CCC[C@H]2C(=O)N[C@@H](Cc2c[nH]cn2)C(=O)N[C@@H](CC(C)C)C(=O)N(C)CC(=O)N[C@@H](Cc2c[nH]c3ccccc23)C(=O)N[C@@H](CO)C(=O)N[C@@H](Cc2c[nH]c3ccccc23)C(=O)N1C, macrocyclic peptide, Formula I series; also called Compound 8) [Compound No. 8] | 223 nM
{CH2CO}-F[NMeA]NPHL[NMeA]WSW[NMeNle][NMeNle]RCG-NH2 (thioether N-14; SMILES CCCC[C@H]1C(=O)N(C)[C@@H](CCCC)C(=O)N[C@@H](CCCNC(=N)N)C(=O)N[C@H](C(=O)NCC(N)=O)CSCC(=O)N[C@@H](Cc2ccccc2)C(=O)N(C)[C@@H](C)C(=O)N[C@@H](CC(N)=O)C(=O)N2CCC[C@H]2C(=O)N[C@@H](Cc2c[nH]cn2)C(=O)N[C@@H](CC(C)C)C(=O)N(C)[C@@H](C)C(=O)N[C@@H](Cc2c[nH]c3ccccc23)C(=O)N[C@@H](CO)C(=O)N[C@@H](Cc2c[nH]c3ccccc23)C(=O)N1C, macrocyclic peptide, Formula I series; also called Compound 13) [Compound No. 13] | 35 nM
{CH2CO}-F[NMeA]NPHL[Sar]WAW[NMeNle][NMeNle]RCG-NH2 (thioether N-14; SMILES CCCC[C@H]1C(=O)N(C)[C@@H](CCCC)C(=O)N[C@@H](CCCNC(=N)N)C(=O)N[C@H](C(=O)NCC(N)=O)CSCC(=O)N[C@@H](Cc2ccccc2)C(=O)N(C)[C@@H](C)C(=O)N[C@@H](CC(N)=O)C(=O)N2CCC[C@H]2C(=O)N[C@@H](Cc2c[nH]cn2)C(=O)N[C@@H](CC(C)C)C(=O)N(C)CC(=O)N[C@@H](Cc2c[nH]c3ccccc23)C(=O)N[C@@H](C)C(=O)N[C@@H](Cc2c[nH]c3ccccc23)C(=O)N1C, macrocyclic peptide, Formula I series; also called Compound 16) [Compound No. 16] | 13 nM
{CH2CO}-F[NMeA]NPAL[Sar]WSW[NMeNle][NMeNle]RCG-NH2 (thioether N-14; SMILES CCCC[C@H]1C(=O)N(C)[C@@H](CCCC)C(=O)N[C@@H](CCCNC(=N)N)C(=O)N[C@H](C(=O)NCC(N)=O)CSCC(=O)N[C@@H](Cc2ccccc2)C(=O)N(C)[C@@H](C)C(=O)N[C@@H](CC(N)=O)C(=O)N2CCC[C@H]2C(=O)N[C@@H](C)C(=O)N[C@@H](CC(C)C)C(=O)N(C)CC(=O)N[C@@H](Cc2c[nH]c3ccccc23)C(=O)N[C@@H](CO)C(=O)N[C@@H](Cc2c[nH]c3ccccc23)C(=O)N1C, macrocyclic peptide, Formula I series; also called Compound 10) [Compound No. 10] | 82 nM
{CH2CO}-F[NMeA]NPHL[dNMeA]WSW[NMeNle][NMeNle]RCG-NH2 (thioether N-14; SMILES CCCC[C@H]1C(=O)N(C)[C@@H](CCCC)C(=O)N[C@@H](CCCNC(=N)N)C(=O)N[C@H](C(=O)NCC(N)=O)CSCC(=O)N[C@@H](Cc2ccccc2)C(=O)N(C)[C@@H](C)C(=O)N[C@@H](CC(N)=O)C(=O)N2CCC[C@H]2C(=O)N[C@@H](Cc2c[nH]cn2)C(=O)N[C@@H](CC(C)C)C(=O)N(C)[C@H](C)C(=O)N[C@@H](Cc2c[nH]c3ccccc23)C(=O)N[C@@H](CO)C(=O)N[C@@H](Cc2c[nH]c3ccccc23)C(=O)N1C, macrocyclic peptide, Formula I series; also called Compound 14) [Compound No. 14] | 242 nM
{CH2CO}-F[NMeA]NPHL[Sar]WSW[NMeNle][NMeNle]ACG-NH2 (thioether N-14; SMILES CCCC[C@H]1C(=O)N(C)[C@@H](CCCC)C(=O)N[C@@H](C)C(=O)N[C@H](C(=O)NCC(N)=O)CSCC(=O)N[C@@H](Cc2ccccc2)C(=O)N(C)[C@@H](C)C(=O)N[C@@H](CC(N)=O)C(=O)N2CCC[C@H]2C(=O)N[C@@H](Cc2c[nH]cn2)C(=O)N[C@@H](CC(C)C)C(=O)N(C)CC(=O)N[C@@H](Cc2c[nH]c3ccccc23)C(=O)N[C@@H](CO)C(=O)N[C@@H](Cc2c[nH]c3ccccc23)C(=O)N1C, macrocyclic peptide, Formula I series; also called Compound 22) [Compound No. 22] | 28 nM
{CH2CO}-F[NMeA]NPHL[Sar]ASW[NMeNle][NMeNle]RCG-NH2 (thioether N-14; SMILES CCCC[C@H]1C(=O)N(C)[C@@H](CCCC)C(=O)N[C@@H](CCCNC(=N)N)C(=O)N[C@H](C(=O)NCC(N)=O)CSCC(=O)N[C@@H](Cc2ccccc2)C(=O)N(C)[C@@H](C)C(=O)N[C@@H](CC(N)=O)C(=O)N2CCC[C@H]2C(=O)N[C@@H](Cc2c[nH]cn2)C(=O)N[C@@H](CC(C)C)C(=O)N(C)CC(=O)N[C@@H](C)C(=O)N[C@@H](CO)C(=O)N[C@@H](Cc2c[nH]c3ccccc23)C(=O)N1C, macrocyclic peptide, Formula I series; also called Compound 15) [Compound No. 15] | 1910 nM
